Literature values in publication PMC4476730.
Like-named read-outs stand apart in the source and are kept apart here.

Columns and labels:
CBP KIX (Homo sapiens) [1] = molecular target: CBP KIX (Homo sapiens) (UniProt Q92793)
CBP KIX (Homo sapiens) [2] = molecular target: CBP KIX (Homo sapiens) (UniProt Q92793); remark: listed apart in the source

Sequence of UniProt Q92793 (Q92793 584-669): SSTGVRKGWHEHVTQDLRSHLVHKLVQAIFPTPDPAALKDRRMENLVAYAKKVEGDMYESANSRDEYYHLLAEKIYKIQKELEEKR

Question: For E2A AD2 (from UniProt P15923), which Kd (CBP KIX (Homo sapiens) [1]) is on record?
Answer: 7.2 µM

Question: What about the Kd (CBP KIX (Homo sapiens) [2]) of the same substance?
Answer: 17 µM
